The source of these data is patent publication US20190177416A1 (NANOMAB TECHNOLOGY, published 2019).

B1: SEQ ID NO 19 (VHH)
VHH: QVQLQESGGGSVQTGGSLRLSCAASTSIYSNNYMAWFSQAPGKGREGVAAVYIGDGRPYYADSVKGRFTISLDSAKNTVYLQMNSLKPEDTAMYYCAAAPGPLSRNYWYTSANYDYWGQGTQVTVSS
notes: pMECS-expressed; also called VHH numbered 19
B2: SEQ ID NO 36 (VHH)
VHH: QVQLQESGGGSVQTGGSLRLSCAASTSLYSYNYMAWFSQAPGKGREGVAAVYVGDGRPYYAASVKGRFTISLDSAKNTVYLQMNSLKPEDTAMYYCAAAPGPLSHNYWYTSANYDYWGQGTQVTVSS
notes: pMECS-expressed; also called VHH numbered 36
B3: SEQ ID NO 25 (VHH)
VHH: QVQLQESGGGSVQTGGSLRLSCTASTSIYSNNYMAWFSQAPGKGREGVAAVYIGDGRPYYADSVKGRFTISLDSAKNTVYLQMNSLKPEDTAMYYCAAAPGPLSHNYWYTSANYDYWGQGTQVTVSS
notes: pMECS-expressed; also called VHH numbered 25
B4: SEQ ID NO 22 (VHH)
VHH: QVQLQESGGGSVQTGGSLRLSCAASTSIYSNNYMAWFSQAPRKGREGVAAVYIGDGRPYYADSVKGRFTISLDSAKNTVYLQMNSLKPEDTAMYYCAAAPGPLSHNYWYTSANYDYWGQGTQVTVSS
notes: pMECS-expressed; also called VHH numbered 22
B5: SEQ ID NO 28 (VHH)
VHH: QVQLQESGGGSVQTGGSLRLSCAASTSIYSNNYMAWFRQAPGKGREGVAAVYIDDGRPYYADSVKGRFTISLDSAKNTVYLQMNSLKPEDTAMYYCAAAPGPLSRHYWYTSANYDYWGPGTQVTVSS
notes: pMECS-expressed; also called VHH numbered 28
B6: SEQ ID NO 13 (VHH)
VHH: QVQLQESGGGSVQTGGSLRLSCAASTSIYSNNYMAWFSQNPGKGREGVAAVYIGDGRPYYADSVKGRFTISLDSAKNTVYLQMNSLKPEDTAMYYCAAAPGPLSRNYWYTSANYDYWGQGTQVTVSS
notes: pMECS-expressed; also called VHH numbered 13
B7: SEQ ID NO 15 (VHH)
VHH: QVQLQESGGGSVQTGGSLRLSCAASTSIYSNNYMAWFSQAPGKGREGVAAVYIDDGRTYYADSVKGRFTISLDSAKNTVYLQMNSLKPEDTAMYYCAAAPGPLSYNYWYTSANYDYWGQGTQVTVSS
notes: pMECS-expressed; also called VHH numbered 15
B8: SEQ ID NO 24 (VHH)
VHH: QVQLQESGGGSVQTGGSLRLSCTASTSIYSNNYMAWFSQSPGKGREGVAAVYMDDGRPYYADSVKGRFTISLDSAKNTMYLQMNSLKPEDTAMYYCAAAPGPLSRNYWYTSANYDYWGQGTQVTVSS
notes: pMECS-expressed; also called VHH numbered 24
B9: SEQ ID NO 32 (VHH)
VHH: QVQLQESGGGSVQTGGSLRLSCAASTSIYSINYMAWFSQAPGKGREGVAAVYIGDGRPYYADSVKGRFTISLDSAKNTVYLQMNSLKPEDTAMYYCAAAPGPLSQHYWYTSANYDYWGQGTQVTVSS
notes: pMECS-expressed; also called VHH numbered 32
B10: SEQ ID NO 30 (VHH)
VHH: QVQLQESGGGSVQTGGSLRLSCTASTSIYSNNYMAWFSQAPGKGREGVAAVYIDDGRPYYADSVKGRFTISLDSAKNTVYLQMNSLKPEDTAMYYCAAAPGPLSRNYWYTSANYDYWGQGTQVTVSS
notes: pMECS-expressed; also called VHH numbered 30
B11: SEQ ID NO 26 (VHH)
VHH: QVQLQESGGGSVQTGGSLRLSCAASTSIYNNNYMAWFSQAPGKEREGVAAVYIGDGRPYYADSVKGRFTISLDSAKNTVYLQMNSLKPEDTAMYYCAAAPGPLSRNYWYTSANYDYWGQGTQVTVSS
notes: pMECS-expressed; also called VHH numbered 26
B12: SEQ ID NO 33 (VHH)
VHH: QVQLQESGGGSVQTGGSLRLSCACSTSIYSNNYMAWFSQAPGKGREGVAAVYIGDGRPYYADSVKGRFTISLDSAKNTMYLQMNSLKPEDTAMYYCAAAPGPLSQHYWYTSANYDYWGQGTQVTVSS
notes: pMECS-expressed; also called VHH numbered 33
B13: SEQ ID NO 21 (VHH)
VHH: QVQLQESGGGSVQTGGSLRLSCAASTSIYSLNYMAWFSQAPGKGREGVAAVYIGDGRPYYADSVKGRFTISLDSAKNTVYLQMNSLKSEDTAMYYCAAAPGPLSRHYWYTSANYDYWGQGTQVTVSS
notes: pMECS-expressed; also called VHH numbered 21
B14: SEQ ID NO 31 (VHH)
VHH: QVQLQESGGGSVQTGGSLRLSCAASTSIYSNNYMAWFRQAPGKGREGVAGVYIGDGRPYYADSVKGRFTISLDSAKNTVYLQMNSLKPEDTAMYYCAAAPGPLSHHYWYTSANYDYWGPGTQVTVSS
notes: pMECS-expressed; also called VHH numbered 31
B15: SEQ ID NO 35 (VHH)
VHH: QVQLQESGGGSVQTGGSLRLSCTASTSIYSNNYMAWFSQAPGKGREGVAAVYIDDGRPYYADSVKGRFTISLDSAKNTVYLQMNSLKPEDTAMYYCAAAPGPLSRNYWYTSANYDYWGQGTQVTVSS
notes: pMECS-expressed; also called VHH numbered 35
B16: SEQ ID NO 14 (VHH)
VHH: QVQLQESGGGSVQTGGSLRLSCAASTSIYSNNYMAWFSQAPGKGREGVAAVYIDDGRPYYADSVKGRFTISLDSAKNTVYLQVNSLKPEDTAMYYCAAAPGPLSRNYWYTSANYDYWGQGTQVTVSS
notes: pMECS-expressed; also called VHH numbered 14
B17: SEQ ID NO 16 (VHH)
VHH: QVQLQESGGGSVQTGGSLRLSCAASPSIYSNNYMAWFSQAPGKGREGVAAVYIGDGRPYYADSVKGRFTISLDSAKNTVYLQMNSLKPEDTAMYYCAAAPGPLSRNYWYTSANYDYWGQGTQVTVSS
notes: pMECS-expressed; also called VHH numbered 16
B18: SEQ ID NO 29 (VHH)
VHH: QVQLQESGGGSVRTGGSLRLSCAASPSIYSNNYMAWFSQAPGKGREGVAAVYIDDGRPYYADSVKGRFTISLDSAKNTVYLQMNSLKPEDTAMYYCAAAPGPLSRNYWYTSANYDYWGQGTQVTVSS
notes: pMECS-expressed; also called VHH numbered 29
B19: SEQ ID NO 23 (VHH)
VHH: QVQLQESGGGSVQTGGSLRLSCAASTSLYSYNYMAWFSQAPGKGREGVAAVYVGDGRPYYADSVKGRFTISLDSAKNTVYLQMNSLKPEDTAMYYCAAAPGPLSHNYWYTSANYDYWGQGTQVTVSS
notes: pMECS-expressed; also called VHH numbered 23
B20: SEQ ID NO 17 (VHH)
VHH: QVQLQESGGGSVQTGGSLRLSCAASTSIYSLNYMAWFSQAPGKGREGVAAVYIDDGRPYYADHVKGRFTISLDTAKNTVYLQMNSLKPEDTAMYYCAAAPGPLSRNYWYTSANYDYWGQGTQVTVSS
notes: pMECS-expressed; also called VHH numbered 17
B21: SEQ ID NO 27 (VHH)
VHH: QVQLQESGGGSVQTGGSLRLSCTASTSIYSNNYMAWFSQSPGKGREGVAAVYMDDGRPYYADSVKGRFTISLDSAKNTMYLQMNSLKPEDTAMYYCAAAPGPLSRNYWYTSANYDYWGQGTQVTVSS
notes: pMECS-expressed; also called VHH numbered 27

The target in the test is T1, human PD-L1 protein (coated antigen) (human, UniProt Q9NZQ7 19-238, limits assumed).
T1 construct: Construct not described; also called PD-L1 antigen; antigenic protein PD-L1
T1 sequence (Q9NZQ7 19-238 limits assumed): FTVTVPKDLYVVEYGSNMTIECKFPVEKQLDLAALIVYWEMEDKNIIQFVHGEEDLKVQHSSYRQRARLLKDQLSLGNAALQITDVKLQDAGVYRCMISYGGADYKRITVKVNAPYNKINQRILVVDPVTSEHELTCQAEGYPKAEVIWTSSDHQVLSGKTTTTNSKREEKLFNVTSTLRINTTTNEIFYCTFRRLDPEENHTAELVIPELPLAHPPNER
Description: PE-ELISA, crude extract on coated PD-L1. The method, then:
(1) From the cell culture dishes containing phage after 3-4 rounds of screening in Example 2, 1000 individual colonies were selected and inoculated into TB medium containing 100 μg/ml of ampicillin (1 liter of TB medium contains 2.3 g of potassium dihydrogen phosphate, 12.52 g of dipotassium hydrogen phosphate, 12 g of peptone, 24 g of yeast extract, 4 ml of glycerol), after growth to log phase, add a final concentration of […] of IPTG, culture at 28° C. overnight. (2) The crude antibody was obtained by the infiltration method, and the antibody was transferred to an antigen-coated ELISA plate and placed at room temperature for 1 hour. (3) Unbound antibody was washed away with PBST, and a mouse anti-HA tag antibody (anti-mouse anti-HA antibody, purchased from Beijing Kangwei Century Biotechnology Co., Ltd.) was added and placed at room temperature for 1 hour. (4) Unbound antibody was washed away with PBST, and anti-mouse alkaline phosphatase conjugate (goat anti-mouse alkaline phosphatase-labeled antibody, purchased from Amytech Co., Ltd.) was added and placed at room temperature for 1 hour. (5) Wash the unbound antibody with PBST, add alkaline phosphatase coloring solution, and read the absorbance at 405 nm on an ELISA apparatus. (6) When the OD value of the sample well is more than 3 times the OD value of the control well (Ratio+/−>3), it is judged as a positive clone hole. (7) The bacteria of the positive clone well were shaken in a LB liquid containing 100 μg per ml to extract a plasmid and perform sequencing.
As to B1, the “OD ratio (experimental group (A405 nm)/control group (A405 nm))” value (shortened to “OD ratio”) was over 20.
As to B2, the “OD ratio” value was over 20.
As for B3, the “OD ratio” value is over 20.
Turning to B4, the “OD ratio” value is over 20.
Turning to B5, the “OD ratio” value was over 20.
For B6, the “OD ratio” value is over 20.
For B7, the “OD ratio” value was over 20.
Regarding B8, the “OD ratio” value was over 20.
Regarding B9, the “OD ratio” value is over 20.
As for B10, the “OD ratio” value is over 20.
Turning to B11, the “OD ratio” value was over 20.
Consider B12, for which the “OD ratio” value is over 20.
Consider B13, for which the “OD ratio” value is over 20.
For B14, the “OD ratio” value is over 20.
As for B15, the “OD ratio” value was over 20.
In the case of B16 it was over 20; in that of B17, over 20; in that of B18, over 20.
Take B19: the “OD ratio” value is over 20.
As for B20, the “OD ratio” value is over 20.
As for B21, the “OD ratio” value is over 20.
